Among the data in patent publication US5622828 are Kd values, retold here.

Common to all, as to experiment: filter
Data set [1] deals with immunoglobulin G (IgG) (Homo sapiens). Conditions: 2'-NH2 all C and U, TBSC.
In data set [2] the target is basic fibroblast growth factor (bFGF) (Homo sapiens) (UniProt P09038). The settings on record: random pool, TBSC.
In data set [3] the target is T1, secretory phospholipase A2 (sPLA2) (Homo sapiens) (UniProt P14555).
T1 sequence: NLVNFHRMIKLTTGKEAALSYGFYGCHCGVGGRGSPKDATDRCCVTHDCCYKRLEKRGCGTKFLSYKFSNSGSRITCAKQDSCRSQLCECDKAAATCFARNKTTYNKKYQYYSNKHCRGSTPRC
Conditions: TBSC, 37 C.

Data set [4] addresses lysozyme (egg white) (Gallus gallus) (UniProt P00698). The settings on record: random pool; TBSC.
Data set [5] addresses pancreatic phospholipase A2 (bpPLA2) (Bos taurus) (UniProt P00593). The settings on record: random pool; TBSC.
In data set [6] the target is C1q (printed Clq) (Homo sapiens) (UniProt P02745+P02746+P02747). Conditions: 2'-NH2 all C and U; random pool; TBSC.
Data set [7] deals with T2, neutrophil elastase (Homo sapiens) (UniProt P08246).
T2 sequence: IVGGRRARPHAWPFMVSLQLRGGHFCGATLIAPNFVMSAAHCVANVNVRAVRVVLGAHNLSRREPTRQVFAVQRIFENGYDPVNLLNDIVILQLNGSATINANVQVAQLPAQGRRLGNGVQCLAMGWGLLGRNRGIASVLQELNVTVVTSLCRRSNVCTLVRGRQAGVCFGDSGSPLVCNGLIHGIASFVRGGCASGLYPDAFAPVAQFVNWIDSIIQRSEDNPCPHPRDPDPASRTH
Conditions: 2'-NH2 all C and U; random pool; TBSC.

Setting [8] is: 2'-NH2 all C and U, random starting pool.

Sequence of basic fibroblast growth factor (bFGF) (Homo sapiens) (P09038 143-288): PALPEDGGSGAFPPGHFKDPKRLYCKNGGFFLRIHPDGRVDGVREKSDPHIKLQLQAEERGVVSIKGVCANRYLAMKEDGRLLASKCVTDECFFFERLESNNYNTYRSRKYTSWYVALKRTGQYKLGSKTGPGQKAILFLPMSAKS
Sequence of pancreatic phospholipase A2 (bpPLA2) (Bos taurus) (P00593 23-145): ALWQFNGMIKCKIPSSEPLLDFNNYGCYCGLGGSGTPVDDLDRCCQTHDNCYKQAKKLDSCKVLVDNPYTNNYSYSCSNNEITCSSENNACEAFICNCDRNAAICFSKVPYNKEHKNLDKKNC
Sequence of C1q (printed Clq) (Homo sapiens) (P02745 23-245, chain 1 of 3): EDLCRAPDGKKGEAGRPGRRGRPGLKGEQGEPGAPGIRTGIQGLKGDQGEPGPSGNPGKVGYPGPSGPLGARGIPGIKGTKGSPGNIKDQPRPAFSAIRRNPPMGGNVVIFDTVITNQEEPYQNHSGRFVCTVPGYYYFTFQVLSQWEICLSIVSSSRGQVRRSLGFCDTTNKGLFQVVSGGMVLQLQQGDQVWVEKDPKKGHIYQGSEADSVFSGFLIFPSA
Sequence of C1q (printed Clq) (Homo sapiens) (P02746 28-253, chain 2 of 3): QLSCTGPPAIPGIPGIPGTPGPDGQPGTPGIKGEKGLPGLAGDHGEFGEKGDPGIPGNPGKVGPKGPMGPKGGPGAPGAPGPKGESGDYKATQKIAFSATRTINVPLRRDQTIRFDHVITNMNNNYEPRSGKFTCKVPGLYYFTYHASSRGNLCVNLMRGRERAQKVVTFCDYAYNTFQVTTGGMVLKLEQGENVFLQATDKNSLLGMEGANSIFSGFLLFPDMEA
Sequence of C1q (printed Clq) (Homo sapiens) (P02747 29-245, chain 3 of 3): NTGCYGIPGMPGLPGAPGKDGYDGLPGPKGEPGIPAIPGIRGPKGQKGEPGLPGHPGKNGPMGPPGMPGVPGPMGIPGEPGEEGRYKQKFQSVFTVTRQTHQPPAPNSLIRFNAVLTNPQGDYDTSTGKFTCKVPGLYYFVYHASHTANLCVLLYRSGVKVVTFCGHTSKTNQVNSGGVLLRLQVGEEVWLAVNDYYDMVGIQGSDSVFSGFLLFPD
Sequence of lysozyme (egg white) (Gallus gallus) (P00698 19-147): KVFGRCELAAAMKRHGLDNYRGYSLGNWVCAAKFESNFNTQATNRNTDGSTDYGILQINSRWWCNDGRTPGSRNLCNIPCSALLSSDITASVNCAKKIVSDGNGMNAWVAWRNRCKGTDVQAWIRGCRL

As for “GGGAAAAGAAGACCGGCCGGCGCCAUAGCCGAGAUCCGAGGUGUUGCCGAGAA [NN19.15]”, the Kd in data set [1] (specificity control, like random RNA) amounted to 4.3 µM.
Regarding “GGGAGCUCAGAAUAAACGCUCAANNNNNNNNNNNNNNNNNNNNNNNNNNNNNNUUCGACAUGAGGCCCGGAUCCGGC [30N1 random RNA]”, the dissociation constant Kd in data set [2] worked out at 270 nM; in data set [3] (random pool, text of Example 2 gives 240 nM) it was 360 nM; in data set [4] it was 1650 nM; in data set [5], 22.5 µM.
The sequence “GGGAGCUCAGAAUAAACGCUCAANNNNNNNNNNNNNNNNNNNNNNNNNNNNNNUUCGACAUGAGGCCCGGAUCCGGC [30N1F random RNA]” came in with a Kd in data set [3] (2'-F all C and U, random 2'-F pool) of 35 nM.
“GGGAGGACGAUGCGGNNNNNNNNNNNNNNNNNNNNNNNNNNNNNNNNNNNNNNNNNNNNNNNNNNCAGACGACUCGCCCGA [50N7 random RNA]” displayed a Kd in data set [3] (setting [8]) of 71 nM.
Turning to “GGGAGCUCAGAAUAAACGCUCAAGANCUCUGCUUACAGCCCGGCUGGGACACUUCGACAUGAGGCCCGGAUCCGGC [75t (75)]”, the Kd in data set [3] (biphasic, Kd2 420 nM, mole fraction 0.40) was 0.9 nM.
On to “GGGAAAAGCGAAUCAUACACAAGANNNNNNNNNNNNNNNNNNNNNNNNNNNNNNNNNNNNNNNNNNNNNNNNNNGCUCCGCCAGAGACCAACCGAGAA [50N9 random RNA]”, for which the Kd in data set [2] (2'-NH2 all C and U) is 170 nM; in data set [6], 1000 nM; in data set [7], 70 nM; in data set [3] (setting [8]) it was 48 nM; in data set [1] (random pool), over 5 µM.
In turn, “GGGAAAAGCGAAUCAUACACAAGACCGGCCGGCGCCAUAGCCGAGAUCCGAGGUGUUGAACGAUAACUCGGUGCUCCGCCAGAGACCAACCGAGAA [NN19]” gave a Kd in data set [1] (specificity control) of over 5 µM.
